Each structure is given as a SMILES string. Where a SMILES comes first, the peptide text is derived from it. The star is where a group is joined. RhodamineB = CCN(CC)c1ccc2c(-c3ccccc3C(=O)*)c3ccc(=[N+](CC)CC)cc-3oc2c1

The test system of the data set is cells exposed to conjugate in culture medium, regardless of the cell type.

Take `CCN(CC)c1ccc2c(-c3ccccc3C(=O)N[C@@H](CCC(N)=O)C(=O)N[C@@H](CCCNC(=N)N)C(=O)N[C@@H](CC(C)C)C(=O)N[C@@H](Cc3ccccc3)C(=O)N[C@@H](CCC(N)=O)C(=O)N[C@H](C(=O)N[C@@H](CCCCN)C(=O)NCC(=O)N[C@@H](CCCNC(=N)N)C(=O)N[C@@H](CCCNC(=N)N)C(=O)O)C(C)C)c3ccc(=[N+](CC)CC)cc-3oc2c1` [rhodamine-Sequence I.D. No. 2] (RhodamineB-QRLFQVKGRR-OH): the “intracellular free calcium increase caused by conjugate” value is recorded as “did not result in uptake of free fluorescein or induce a large increase in intracellular free calcium”.

(Values after patent US5846743A, “Polyphoshoinositide binding peptides for intracellular drug delivery” (Brigham and Women's Hospital, Inc., priority 1996, dated 1998).)
